Where two headings read alike, the source gives them in different places.
Tested on: Jeko-1
Experiment: CTG assay of ROR-1 ADCs and toxins, JeKo-1
Assay type: cell-based
Method: FIG. 33 illustrates a CTG assay wherein ROR+ (JeKo-1) cells were incubated with the ADCs generated as described in FIG. 32 in serial three-fold dilutions and cell viability was assessed after 72 hours.
The CTG assay is a method of determining the number of viable cells in culture based on quantitation of the ATP present, an indicator of metabolically active cells. The cell assay requires the addition of a single reagent, Cell Titer Glo, in which cells are lysed and generation of a luminescent signal is produced. The luminescent signal is proportional to the amount of ATP present. The amount of ATP is directly proportional to the number of cells present in culture. For our assay, cells were ensured to be in log-phase for either Jeko-1 or MDA-MB-468. Cells were transferred to 96 wells and treated with compounds in three-fold serial dilution starting from 1 μM to 0.0000508 μM (10 points dilution), for 72 h. Cell viability was analyzed with CellTiter-Glo® Luminescent Cell Viability Assay (Promega) following manufactures' instruction. Percentage of viable cells in each compound concentration was determined by normalizing with the luminescence of vehicle control and plotted into percentage of viability versus dose response curve by nonlinear fit in GraphPad Prism software.
Novel ROR-1 antibody-drug conjugates (ADCs) were evaluated by CTG Assay in a similar manner as was described in Example 24 for screening of payloads. […] Briefly ROR+(JeKo-1/MDA-MB-468) or ROR− (Ramos) cells were transferred to 96 wells and treated with the ADCs in three-fold serial dilution starting from […] (10 points dilution), for 72 h. Cell viability was analyzed with CellTiter-Glo® Luminescent Cell Viability Assay (Promega) following the manufactures' instructions (FIG. 33). The percentage of viable cells at each ADC concentration was determined by normalizing with the luminescence of vehicle control and plotted into percentage of viability versus dose response curve by nonlinear fit in GraphPad Prism software.

B1: VLS-101 (conjugate, chains of the INN, looked up)
VH: QVQLQESGPGLVKPSQTLSLTCTVSGYAFTAYNIHWVRQAPGQGLEWMGSFDPYDGGSSYNQKFKDRLTISKDTSKNQVVLTMTNMDPVDTATYYCARGWYYFDYWGHGTLVTVSS
VL: DIVMTQTPLSLPVTPGEPASISCRASKSISKYLAWYQQKPGQAPRLLIYSGSTLQSGIPPRFSGSGYGTDFTLTINNIESEDAAYYFCQQHDESPYTFGEGTKVEIK
modifications: vedotin (MMAE) payload
IC50 (Jeko-1, average of run 1 and run 2, read-out: Avg. IC50): 60.1 nM | IC50 (Jeko-1 P3, run 1, 72 h, read-out: Jeko-1 P3 (RUN1) IC50): 63.4 nM | IC50 (Jeko-1 P4, run 2, 72 h, read-out: Jeko-1 P4 (RUN2) IC50): 56.8 nM
